Measured values as given in publication PMC6486591.

Legend:
[1] = target: YenA2 (Yersinia entomophaga) (UniProt B6A878); assay: cryo-EM structure; YenTcA pore form inserted into POPC liposomes (1:2 w/w, 3-5 freeze/thaw cycles), single-particle cryo-EM, 11 Å resolution
[2] = target: YenA2 (Yersinia entomophaga) (UniProt B6A878); assay: cryo-EM structure; YenTcA soluble pre-pore form, single-particle cryo-EM, 4.4 Å average resolution, C5 symmetry; 0.1 mg/mL in 25 mM Tris, 150 mM NaCl, pH 7.5, with 10 mM NDSB-195

Sequence of YenA2 (B6A878 whole entry): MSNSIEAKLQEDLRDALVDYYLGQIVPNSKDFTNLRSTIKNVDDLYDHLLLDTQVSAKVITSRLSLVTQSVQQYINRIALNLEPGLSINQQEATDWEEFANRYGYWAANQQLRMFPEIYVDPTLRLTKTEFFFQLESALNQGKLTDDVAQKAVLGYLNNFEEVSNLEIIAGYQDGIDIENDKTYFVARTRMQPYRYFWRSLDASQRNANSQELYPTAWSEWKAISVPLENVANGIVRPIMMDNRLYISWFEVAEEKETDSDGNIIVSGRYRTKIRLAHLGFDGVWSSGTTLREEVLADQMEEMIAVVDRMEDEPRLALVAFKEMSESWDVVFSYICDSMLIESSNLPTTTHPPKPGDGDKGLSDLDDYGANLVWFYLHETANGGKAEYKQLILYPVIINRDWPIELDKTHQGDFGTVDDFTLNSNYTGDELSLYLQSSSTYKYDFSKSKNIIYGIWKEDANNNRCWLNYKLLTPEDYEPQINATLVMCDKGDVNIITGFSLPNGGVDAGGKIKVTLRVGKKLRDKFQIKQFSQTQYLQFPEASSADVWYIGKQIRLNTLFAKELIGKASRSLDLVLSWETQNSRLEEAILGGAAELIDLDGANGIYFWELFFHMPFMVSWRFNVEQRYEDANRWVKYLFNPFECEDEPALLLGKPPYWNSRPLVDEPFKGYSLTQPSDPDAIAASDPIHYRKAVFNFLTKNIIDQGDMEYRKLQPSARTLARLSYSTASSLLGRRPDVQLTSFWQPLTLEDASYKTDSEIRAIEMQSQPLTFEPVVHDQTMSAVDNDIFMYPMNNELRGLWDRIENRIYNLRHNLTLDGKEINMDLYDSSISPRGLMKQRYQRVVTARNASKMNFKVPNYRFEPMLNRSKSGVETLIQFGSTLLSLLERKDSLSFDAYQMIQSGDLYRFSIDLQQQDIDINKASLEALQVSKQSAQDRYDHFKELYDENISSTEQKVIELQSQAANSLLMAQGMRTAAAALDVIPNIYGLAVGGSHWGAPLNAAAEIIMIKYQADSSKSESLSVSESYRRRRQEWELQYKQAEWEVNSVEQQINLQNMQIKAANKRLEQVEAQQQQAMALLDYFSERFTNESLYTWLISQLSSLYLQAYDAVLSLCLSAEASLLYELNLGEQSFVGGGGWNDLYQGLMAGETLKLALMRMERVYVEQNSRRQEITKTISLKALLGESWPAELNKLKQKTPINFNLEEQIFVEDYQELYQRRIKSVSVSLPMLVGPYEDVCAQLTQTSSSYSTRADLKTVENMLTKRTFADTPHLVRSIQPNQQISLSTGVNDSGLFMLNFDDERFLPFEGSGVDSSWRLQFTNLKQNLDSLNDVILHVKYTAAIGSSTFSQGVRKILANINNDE

Work on “YenA2 (from UniProt B6A878 1-1364) (natural protein)” yielded a stoichiometry N [1] of 5 and a stoichiometry N [2] of 5.
